From publication PMC5493754, “Myosin 7 and its adaptors link cadherins to actin” (Nature Communications, 2017)
Where a chain is given by its changes, count along the chain named.

T1: Harmonin NPDZ1.PDZ2 (human, UniProt Q9Y6N9-1 1-301)
T1 construct: Harmonin-a1 (USH1C), human, N-terminal domain, PDZ1 and PDZ2, residues 1-301 of UniProt Q9Y6N9-1; source: E. coli BL21 (DE3) Rosetta, purified (Glutathione Sepharose 4B, size-exclusion chromatography)
T1 sequence (looked up): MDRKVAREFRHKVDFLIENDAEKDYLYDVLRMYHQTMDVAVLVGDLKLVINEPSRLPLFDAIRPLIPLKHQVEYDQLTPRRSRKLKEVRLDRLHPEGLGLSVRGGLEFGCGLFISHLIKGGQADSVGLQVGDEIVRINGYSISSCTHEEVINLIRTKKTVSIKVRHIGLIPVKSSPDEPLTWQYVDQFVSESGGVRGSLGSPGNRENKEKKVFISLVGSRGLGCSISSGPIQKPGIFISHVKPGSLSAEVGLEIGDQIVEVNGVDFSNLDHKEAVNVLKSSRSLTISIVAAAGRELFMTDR

T2: Myosin 7b MF1.SH3 A1128E (human, UniProt Q6PIF6 958-1586, A1128E)
T2 construct: Myosin 7b, human, MF1.SH3, residues 958-1586 of UniProt Q6PIF6; also called M7b MF1.SH3 A1128E; source: E. coli, purified similarly as wild type (Histrap, CaptoQ, gel filtration)
T2 sequence: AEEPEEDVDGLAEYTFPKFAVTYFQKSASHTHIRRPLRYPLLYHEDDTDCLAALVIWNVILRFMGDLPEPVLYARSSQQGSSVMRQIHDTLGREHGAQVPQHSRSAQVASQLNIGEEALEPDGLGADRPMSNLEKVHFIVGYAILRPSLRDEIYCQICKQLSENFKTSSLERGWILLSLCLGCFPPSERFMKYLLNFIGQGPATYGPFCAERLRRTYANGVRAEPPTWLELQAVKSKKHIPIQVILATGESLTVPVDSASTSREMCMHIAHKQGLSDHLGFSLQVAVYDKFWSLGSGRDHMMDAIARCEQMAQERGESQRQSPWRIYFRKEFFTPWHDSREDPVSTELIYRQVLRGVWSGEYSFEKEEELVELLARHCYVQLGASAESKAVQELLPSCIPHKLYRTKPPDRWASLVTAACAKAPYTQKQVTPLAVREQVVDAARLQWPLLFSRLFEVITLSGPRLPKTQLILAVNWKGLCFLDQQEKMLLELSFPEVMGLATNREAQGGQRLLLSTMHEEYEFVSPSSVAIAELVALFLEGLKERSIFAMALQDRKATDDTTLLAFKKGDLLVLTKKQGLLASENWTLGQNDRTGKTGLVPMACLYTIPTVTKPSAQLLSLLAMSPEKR

T3: Myosin 7a MF1.SH3 (human, UniProt Q13402-1 991-1692, residues 1523-1560 were deleted from MF1)
T3 construct: Myosin 7a, human, N-terminal MyTH4-FERM domain and SH3, residues 991-1692 of UniProt Q13402-1; residues 1523-1560 deleted; Thrombin site of the vector replaced by an SSG linker; also called M7a MF1.SH3; Myo7a MF1.SH3; source: E. coli (BL21-AI, BL21 (DE3) Rosetta or BL21-Gold (DE3)), purified (Histrap, CaptoQ, gel filtration)
T3 sequence (looked up): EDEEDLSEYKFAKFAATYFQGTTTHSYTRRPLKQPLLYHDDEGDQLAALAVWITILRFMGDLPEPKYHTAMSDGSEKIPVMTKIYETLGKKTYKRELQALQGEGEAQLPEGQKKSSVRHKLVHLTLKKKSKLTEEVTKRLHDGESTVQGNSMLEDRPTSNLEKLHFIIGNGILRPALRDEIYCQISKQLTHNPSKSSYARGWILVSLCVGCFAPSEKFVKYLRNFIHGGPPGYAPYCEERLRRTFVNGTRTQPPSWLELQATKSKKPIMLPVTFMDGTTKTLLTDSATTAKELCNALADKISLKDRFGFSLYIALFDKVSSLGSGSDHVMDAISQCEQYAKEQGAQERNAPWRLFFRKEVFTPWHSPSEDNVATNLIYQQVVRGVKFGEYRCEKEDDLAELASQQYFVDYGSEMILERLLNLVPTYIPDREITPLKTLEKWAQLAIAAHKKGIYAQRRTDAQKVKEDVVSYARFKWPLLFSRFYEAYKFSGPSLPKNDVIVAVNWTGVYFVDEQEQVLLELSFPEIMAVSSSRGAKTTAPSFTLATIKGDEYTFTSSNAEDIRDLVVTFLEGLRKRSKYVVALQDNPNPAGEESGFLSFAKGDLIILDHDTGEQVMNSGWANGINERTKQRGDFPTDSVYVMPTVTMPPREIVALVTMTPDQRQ

T4: Myosin 7b MF1.SH3 (human, UniProt Q6PIF6 958-1586)
T4 construct: also called M7b MF1.SH3; Myo7b MF1.SH3; source: E. coli (BL21-AI, BL21 (DE3) Rosetta or BL21-Gold (DE3)), purified (Histrap, CaptoQ, gel filtration)
T4 sequence: T2 sequence with E171A

T5: Full length (FL)-harmonin (harmonin-a1) (human, UniProt Q9Y6N9-1 1-552)
T5 construct: Harmonin-a1 (USH1C), human, residues 1-552 of UniProt Q9Y6N9-1; also called FL-harmonin-a; source: E. coli BL21 (DE3) Rosetta, purified (Glutathione Sepharose 4B, size-exclusion chromatography)
T5 sequence (looked up): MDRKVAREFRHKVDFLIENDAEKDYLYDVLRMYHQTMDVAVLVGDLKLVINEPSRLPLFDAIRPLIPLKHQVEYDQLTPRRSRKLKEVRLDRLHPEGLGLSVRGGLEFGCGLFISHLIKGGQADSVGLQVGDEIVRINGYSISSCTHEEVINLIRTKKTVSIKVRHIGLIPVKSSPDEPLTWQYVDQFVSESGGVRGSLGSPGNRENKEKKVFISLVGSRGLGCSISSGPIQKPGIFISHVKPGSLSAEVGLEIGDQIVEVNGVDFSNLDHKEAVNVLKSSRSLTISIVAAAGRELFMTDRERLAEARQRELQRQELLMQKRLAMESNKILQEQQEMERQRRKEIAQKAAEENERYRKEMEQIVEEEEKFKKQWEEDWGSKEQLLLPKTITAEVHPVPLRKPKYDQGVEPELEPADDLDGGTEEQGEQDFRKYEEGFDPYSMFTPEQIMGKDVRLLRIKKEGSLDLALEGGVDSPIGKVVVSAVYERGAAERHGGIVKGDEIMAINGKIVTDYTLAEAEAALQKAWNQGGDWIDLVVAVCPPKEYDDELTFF

B1: YFP-SANS_(CEN-PBM) (domain or fragment, UniProt Q495M9 300-461, looked up)
chain: DSGHDSLFTRPGLGTMVFRRNYLSSGLHGLGREDGGLDGVGAPRGRLQSSPSLDDDSLGSANSLQDRSCGEELPWDELDLGLDEDLEPETSPLETFLASLHMEDFAALLRQEKIDLEALMLCSDLDLRSISVPLGPRKKILGAVRRRRQAMERPPALEDTEL
notes: The full-length SANS gene was synthesised; source: E. coli (BL21-AI, BL21 (DE3) Rosetta or BL21-Gold (DE3)), purified (Histrap, CaptoQ, gel filtration); not shown: YFP, N-terminal, kept
B2: YFP-FL-harmonin-ΔCter (domain or fragment, human, UniProt Q9Y6N9-1 1-542, looked up)
chain: MDRKVAREFRHKVDFLIENDAEKDYLYDVLRMYHQTMDVAVLVGDLKLVINEPSRLPLFDAIRPLIPLKHQVEYDQLTPRRSRKLKEVRLDRLHPEGLGLSVRGGLEFGCGLFISHLIKGGQADSVGLQVGDEIVRINGYSISSCTHEEVINLIRTKKTVSIKVRHIGLIPVKSSPDEPLTWQYVDQFVSESGGVRGSLGSPGNRENKEKKVFISLVGSRGLGCSISSGPIQKPGIFISHVKPGSLSAEVGLEIGDQIVEVNGVDFSNLDHKEAVNVLKSSRSLTISIVAAAGRELFMTDRERLAEARQRELQRQELLMQKRLAMESNKILQEQQEMERQRRKEIAQKAAEENERYRKEMEQIVEEEEKFKKQWEEDWGSKEQLLLPKTITAEVHPVPLRKPKYDQGVEPELEPADDLDGGTEEQGEQDFRKYEEGFDPYSMFTPEQIMGKDVRLLRIKKEGSLDLALEGGVDSPIGKVVVSAVYERGAAERHGGIVKGDEIMAINGKIVTDYTLAEAEAALQKAWNQGGDWIDLVVAVCPP
notes: Harmonin-a1 (USH1C), human, residues 1-542 of UniProt Q9Y6N9-1; also called ^YFPFL ΔCter; source: E. coli BL21 (DE3) Rosetta, purified (Glutathione Sepharose 4B, size-exclusion chromatography)
B3: YFP-ANKS4B_(CEN-PBM) (domain or fragment, human, UniProt Q8N8V4 259-417, looked up)
chain: SVHHESILNRPGLGSIVFRRNRISSPEDISDSKREFGFKLPSELLQRQGASEADEGAADEEGEENGLKDDLPWDDDEVEWEEDVVDATPLEVFLLSQHLEEFLPIFKREQIDLEALLLCSDEDLQSIQMQLGPRKKVLNAINRRKQVLQQPGQLVDTSL
notes: ANKS4B, human, CEN regions, SAM domain and PBM, residues 259-417 of UniProt Q8N8V4; source: E. coli (BL21-AI, BL21 (DE3) Rosetta or BL21-Gold (DE3)), purified (Histrap, CaptoQ, gel filtration); not shown: YFP, N-terminal, kept

What was measured:
[1] = biological target: YFP-Harmonin-a PDZ3c (human) (UniProt Q9Y6N9); experiment: MST; YFP-fused partner constant at 100 nM, non-fluorescent protein titrated (16 two-fold dilutions); 20 mM Hepes pH 7.0, 100 mM NaCl, 1 mM EGTA, 0.5 mM TCEP, 0.05% Tween 20; Monolith NT.115
[2] = biological target: YFP-SANS_(CEN-PBM) (UniProt Q495M9); experiment: as above
[3] = biological target: YFP-ANKS4B_(CEN-PBM) (human) (UniProt Q8N8V4); experiment: as above
[4] = biological target: T1, Harmonin NPDZ1.PDZ2; experiment: as above; conditions: both partners purified
[5] = biological target: T2, Myosin 7b MF1.SH3 A1128E; experiment: as above; conditions: both partners purified
[6] = biological target: T3, Myosin 7a MF1.SH3; experiment: as above; conditions: both partners purified
[7] = biological target: T4, Myosin 7b MF1.SH3; experiment: as above; conditions: both partners purified
[8] = biological target: T5, Full length (FL)-harmonin (harmonin-a1); experiment: MST; as a1 but 150 mM NaCl (for FL-Harmonin-a); YFP-fused partner constant at 100 nM, non-fluorescent protein titrated; conditions: both partners purified

Row | Kd [4] | Kd [5] | Kd [6] | Kd [7] | further results | Molecule
1 | – | – | – | – | Kd [1]: > 100 µM | Myosin 7b MF2 R1921E-F1923V (from UniProt Q6PIF6 1605-2116) (domain or fragment)
2 | – | – | – | – | Kd [2]: 6.6 µM; Kd [3]: 3.1 µM | Myosin 7b MF1.SH3 K1194E-K1195E R1171E-R1172E (from UniProt Q6PIF6 958-1586) (domain or fragment)
3 | 0.017 µM | 18.2 ± 2.8 µM | 0.13 ± 0.02 µM | 5.4 ± 1.6 µM | – | B1
4 | – | – | – | – | Kd [8]: 2.5 µM | B2
5 | 0.009 µM | 13.1 ± 0.7 µM | 4.9 ± 0.7 µM | 4.3 ± 0.8 µM | – | B3
